The term Kd denotes the constant that tells how readily two partners part at equilibrium. Higher therefore signals a looser complex.

Data set [1] has as its system KmAgo (Km-WT) (Kurthia massiliensis). Nature of the data set: fluorescence polarization. The conditions noted are these: FP: 5 nM FAM-DNA, 0-1500 nM protein, 15 mM Tris-HCl pH 7.4, 200 mM NaCl, 5 mM MnCl2, 37 C, 1 h, EMSA: 1 uM FAM-guide, 2 uM protein. For orientation: Polarisation of emitted light reports the rotation of a fluorescent probe.
The test system of data set [2] is Km-AP23 (artificial (CPDiffusion design on KmAgo backbone)). Briefly: fluorescence polarization. Particulars: FP: 5 nM FAM-DNA, 0-1500 nM protein, 15 mM Tris-HCl pH 7.4, 200 mM NaCl, 5 mM MnCl2, 37 C, 1 h, EMSA: 1 uM FAM-guide, 2 uM protein.

For tDNA (target DNA), the Kd is 70 nM in data set [1] and 29.5 nM in data set [2].
gDNA (guide DNA): the Kd was 65.9 nM in data set [1] and 17 nM in data set [2].

For the origin of these results see paper PMC11385924.
